Target: T1, N-terminal domain of GpsB (GpsB 1-75) (S. aureus, UniProt Q2FYI5 1-75)
T1 construct: GpsB, S. aureus, amino acids 1-75 (N-terminal domain); source: E. coli BL21 (DE3), purified (Ni-NTA, SUMO protease, second Ni-NTA); not shown: His, N-terminal, cleaved; SUMO, N-terminal, cleaved
T1 sequence (looked up): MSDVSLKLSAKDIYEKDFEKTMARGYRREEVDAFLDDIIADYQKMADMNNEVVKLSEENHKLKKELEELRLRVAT
Test: SEC; GpsB(1-75) at 90 uM mixed with SUMO-FacZ at 30 uM in 500 ul, salt 150-200 mM; Superdex75 Increase 10/300 in 20 mM HEPES pH 7.6, 100 mM NaCl, 1 mM DTT, 0.5 ml/min
Conditions: both partners purified

B1: His-SUMO fusion bearing a 3x concatenation of residues 127-146 of FacZ (native motif NRHYRR) (domain or fragment)
chain: EIADKWQNRHYRRGSANYKAGSAGEIADKWQNRHYRRGSANYKAGSAGEIADKWQNRHYRRGSANYKA
notes: FacZ (factor preventing extra Z-rings), S. aureus, residues 127-146, first of three repeats; linker; FacZ, S. aureus, residues 127-146, second repeat; FacZ, S. aureus, residues 127-146, third repeat; The methods call the stretch 127-145, the results and legends 127-146; also called SUMO-3x-FacZ (127-146); His-SUMO-FacZ_(127-145); source: E. coli BL21 (DE3), purified (Ni-NTA); not shown: His, …
binding result: binds

From publication PMC10914604, “FacZ is a GpsB-interacting protein that prevents aberrant division-site placement in Staphylococcus aureus” (Nature Microbiology, 2024)
